Data on 22 sequences can be found in the DeepSol protein solubility set.

The nature of this data set: soluble on expression in E. coli; label from the status in PepcDB or PDB records.
As to “MNGSKENAMKIDLNSDMGEGFGPYRLCDDEAMMKIVSSANIACGFHGGDPDTMARMVRLAKANGVGIGAHPGLPDRAGFGRREIPFQPDELRQQMLYQLGALMAIAGAEGMKVGHFSFHAAMGNMVNRDPVLADLMMNAIATVDPRLVVFVTPESEIERAAKRAGLKTLALFLADRAYDAEGRLVARGLPGALVKDETSVRARVRRFLTHGQVEAIDGTIIAMPAHSILVHSDTPGSLELARIIRSEIEASGATLAPAAEHAALEHHHHHH”, the “soluble on expression in E. coli” value is “soluble”.
On to “MSEAQGQGKQSLVEMLKAMVQARASDIHLQAGAPPTVRIDGKLRPFGNRPLTPKEVEAIARALLTPEQLEELEYRKEMDFAYTIPGVARFRCNLLRQRGSFGLVMRVVSEVIPSFEALGLPREVMESLAAKERGLILVTGPTGSGKSTTLAALIDHINLHYAKNIITIEDPIEFLHKHKKSLVVQREVGLDTDSFYTGLKYALRQDPDVIMVGEMRDRETVEAALMAAQTGHLVLSTLHTLDAWRTINRIIDFFPLHEHRQVRVLLAESLLGILSQRLLPKADGQGRVLALEILIATPYVRELLKDEEKMPQIKEAMMEGSLYGMRTFDQHLVELYTEGLISLEDALSAATSPHEFRLLLTKATGQTY”, for which the “soluble on expression in E. coli” value is listed as “soluble”.
For the sequence “MNGASPAHSLVSTTAVAGGGGSSGAAAGLDDFHFPPDIPSMQERKDEAMRVLKADLMTELDKEVKSLEEDSWMFEGPRSRIHLISRRGNFLKKGGEVKLW”, the “soluble on expression in E. coli” value is reported as “not soluble”.
For “MSLNVMYKNSCPNCGGDISGDRLLNGLPCEACLPYINGIDDVDHISKVKTLYNILLNNDKIKNYWNLYYNITTFETVFKYFRDKTGYEPWSLQKLWLRRLASNQSFTMSAPTGLGKTTTLMTYSVFIGQDVVYIVPTKSLMEQVCKRLEKLGAQVSCGKIDQKKVSVITISYLNKNADSIVSLKPNFVVIDDADAVIKSGKTTDRLVSLLGIPKDVYESAIQLIRLRNKYYFSNEYTEEVKEKIRELELKIAEFKDKISQLVIASATIRPKGIKQKALRLLTGFEPSSIQLYARNIIDAYTENLDLSIVKELGSGGLILVSKEYGRSKLNEIKKYVEDLGFNAKLAISGRKFLDDFSQGKVDILVGSASYYGVAVRGIDEPKRLKYVIYYGVPKIRAKLFDALSNPFTLLRVGKLIGIDFSKLQNKILILNPSEVQLLKFSIIKGEGHHHHHH”, the “soluble on expression in E. coli” value is given as “not soluble”.
The same measure for “MYEIPWSKPVNINMLDGRCRTVVGPLDAMHCLQSEWPVRDGAYYGCAIRACNAALKRRKRPEDARAAFIAALREAFLTVVPMQEEGHGPRPLE”: “not soluble”; for “MSLHLSNVILHQLCKNDQDELVVKLRPASLENDASTENLVAELHRVFHSKAGKGFGSFQSDSEFQFWLQEMRKGERDFYDFSQISANRLKEELIKYPFADEGILVFAEYQSLATDYLFIGILPMNQSLKVTEGLDISATDYLDITKMDIAARIDLSSYETDKESNRYLQYIKGRVGRKVADFFLDFLQADIGLDTKQQNLVLMQAVDDFCADSKLEKQEVNEYKKQVYNYCNEQIKSGEEVQISELSGELPPSQDGTSFMDFTKEQGYELEESFPGDRSTVRKLTKYVGAGGGLNISFDSLLLGERIFYDPETDTLTIKGTPPNLKDQLSRNLEHHHHHH”: “soluble”.
On to “MSIPKQLMIGSVPYEVEVVKGWIDEKENGEVRIAEVTYHEQQIKISDNVAKHEGQMKNVLHEAIHAMLYEYGLDRLNKEVNVNALTTVFFDFIKNNIRGGISSFVGYQYLLLKCPEKTNVEFYDSDTDPATLRFKKETDELSFINTAAELVETINQHPPEVDVSALGVAMAKAEVHKAVDLGVAHEQIQESAVKMTTDKQTRKLPIVDVNRSSFPMEEIAKITKKEETDPIHWKTGIKYDDEGTPRYRTRYECCMCGNRGNQYEYEENKFTKCHKCNAKLKIVQATKNGFPERDAFGNFYVANDEYSVILDGE”, for which the “soluble on expression in E. coli” value was “not soluble”.
Regarding “MAIQHPDIQPAVNHSVQVAIAGAGPVGLMMANYLGQMGIDVLVVEKLDKLIDYPRAIGIDDEALRTMQSVGLVDNVLPHTTPWHAMRFLTPKGRCFADIQPMTDEFGWPRRNAFIQPQVDAVMLEGVSRFPNVRCLFSRELEAFSQQDDEVTLHLKTAEGLREIVKAQWLVACDGGASFVRRTLNVPFEGKTAPNQWIVVDIANDPLSTPHIYLCCDPVRPYVSAALPHAVRRFEFMVMPGETEEQLREPQNMRKLLSKVLPNPDNVELIRQRVYTHNARLAQRFRIDRVLLAGDAAHIMPVWQGQGYNSGMRDAFNLAWKLALVIQGKARDALLDTYQQERRDHAKAMIDLSVTAGNVLAPPKRWQGTLRDGVSWLLNYLPPVKRYFLEMRFKPMPQYYGGALVREGEAKHSPVGKMFIQPKVTLENGDVTLLDNAIGANFAVIGWGCNPLWGMSDEQIQQWRALSTRFIQVVPEVQIHTAQDNHDGVLRVGDTQGRLRSWFAQHNASLVVMRPDRFVAATAIPQTLGKTLNKLASVMTLTRPDADVSVEKVA”, the “soluble on expression in E. coli” value is listed as “not soluble”.
As to “MGSSHHHHHHSSGLVPRGSHMEAIGVLMMCPMSTYLEQELDKRFKLFRYWTQPAQRDFLALQAESIRAVVGNSNAGADAELIDALPKLEIVSSFSVGLDKVDLIKCEEKGVRVTNTPDVLTDDVADLAIGLILAVLRRICECDKYVRRGAWKFGDFKLTTKFSGKRVGIIGLGRIGLAVAERAEAFDCPISYFSRSKKPNTNYTYYGSVVELASNSDILVVACPLTPETTHIINREVIDALGPKGVLINIGRGPHVDEPELVSALVEGRLGGAGLDVFEREPEVPEKLFGLENVVLLPHVGSGTVETRKVMADLVVGNLEAHFSGKPLLTPVV”, the “soluble on expression in E. coli” value is listed as “soluble”.
With “MSLTVIIKSMETPEEIEGKSLVHWQTWRESYDDLLPAEFQDTMTLERCRFFSQKYPENTLIAMDGVKVVGFISYGNFRDETIQAGEIIALYVLKDYYGKGIAQKLMKAALTALNHFSEIFLWVLKDNKRAIAFYQKMGFTFDGQEKILELGKPIKEKRMVFYSKEGHHHHHH”, the “soluble on expression in E. coli” value is listed as “soluble”.
Consider “MGSDKIHHHHHHSDDINQKVAEQLAQKAQSSSLGYDIVESLTVEVGPRLAGSEQDKVAVDWAIAKLQSLGFDRVYKEPVTVPVWRRGIAKASILSPFPQPLVVTALGGSIATPAQGLSATIVRFDTLQDLQNAEAGSLNDKIAFIDAKTERHRDGKGYGQTASGRSRGAVAAAEKGAVGIIIRSIGTDHDRMAHTGMMRYEEGVTAIPAAAISNPDADLINAMLKRDKEVVISLELGSERRGETTSYNVIAEVKGSTKADEIVLIGAHLDSWDEGTGAIDDGAGVAIVTAAAKHILDLPQKPERTIRVVLYAAEELGLLGGKTYAKEHEAELEKHYIAAESDFGAGPIYQIDWRVADTAHSPVINAMKVAEPLGVAAGNNKASGGPDVSMLPALGVPVASLRQDGSDYFDYHHTPNDTLDKINPEALAQNVAVYAQFAWVMANSKVELRPLPPKE”, for which the “soluble on expression in E. coli” value is recorded as “not soluble”.
Consider “MGSDKIHHHHHHMLTCNGSKTFQTFIKAVTDLINSNLLEDQMVCGIEKLLEELLEKKTWLPLEKQKANSAQYARHLLYEDPLNRFEVLALVWKDGQSTPLHDHDGTWGVEGVFTGRIMVQNFIQTKQLENSLVYLTHTGNLYLGEGETDKVIPPADCHILEIDDNESVVTIHVYGKRLEKFKVYVPTKEKNVYTCETKYIRYNS”, for which the “soluble on expression in E. coli” value is reported as “not soluble”.
For the sequence “MSLNIETKKVAVEEISAAIANAQTLVVAEYRGISVSSMTELRANARKEGVYLRVLKNTLARRAVQGTSFAELADQMVGPLVYAASEDAVAAAKVLHQFAKKDDKIVVKAGSYNGEVMNAAQVAELASIPSREELLSKLLFVMQAPVSGFARGLAALAEKKAGEEAA”, the “soluble on expression in E. coli” value was “not soluble”.
As to “MGSDKIHHHHHHMSDSKWKYNIIYNMEIEVLTGLHIGGSNEELKIGGTDSPVITTKYLINNVEPCDLPYIPGSSIKGKIRSLLENVDYKGKNGDDIVSKMFGYYPNAGEGIKRLTRLIIRDAFLDDGHIKSAEDARNVIEIKSENKIDPIESKATPRFIERVRRGTKFKGKIILSIYEGDNEEEMIKCLKTGISLLEDSYLGGNGTRGYGSVKITLGEPIKKGIDKYEENIKDNTSNGSEN”, the “soluble on expression in E. coli” value is “not soluble”.
Consider “NPTEQLLTRFNQAAQGDTGLVDTVHDELSQLVQKQGATPVTLVYLGSSETLQGRDAFMPWNKMKFTERGLATIQKGLDLMANQPMPIQEQQRLQGLPEYQ”, for which the “soluble on expression in E. coli” value was “not soluble”.
As to “TKKNELNKAHVTIALTNPKTPTNVGAVIRAAGCYQADQIIYNGNRYAQAAKYHKKTLQTDTFNMQDKIPLLQVESFIGIKDSLESIPSSAKIICVDLVEGATPLPHFIHPPEAVYIFGPEDSSVKQEVIDIADDVVYVPTVGCMNLAATVNVLLYDRLAKSL”, the “soluble on expression in E. coli” value is on record as “not soluble”.
For “MGSDKIHHHHHHAQIKFRNHSVSVVSLNYDASNKTMLFRQGEEMMEMTNPAQVDTVIIGKRKFVPVGRGFYEVVCRKEGVVYIDWLLKDVNIGSKGALGTVTQGSVKNLQMSDLGLNGTEMYTPYERQKIGSTEVYRRKNDNTYYIKVEGKLEKVKSLKHLEKIFIGHKDEIRKFAKDHKIDMKDILDVFSILDYCMELEQ”, the “soluble on expression in E. coli” value is “not soluble”.
“MGSDKIHHHHHHMDEMKVIEIIKKTLKFSNENIVKGIDDDCAIIKIDENFYLVATTDMMVKKAHIPSILSPYEIGGRILTANVSDIASMGAKPLAFLVSISLSKEEANEKFIKELYSGLDDFSKLYDCPVVGGDTNRGDELILSGTAFGITDNPIYRRGKVGDDICVTNDLGRVYCALTLYYMLKENKISYKEFERLCQKYPKIIEKLRKPIARIKEGLLMNKLINGCCDISDGLGKEITYFKNFEIYSDRIFKLIPEDVIEFCDAFNLNPIKVALNSGEEFELLFTTSKFNKVKDSLKGYSKIYKIGKIIEDGQFIDGEEFYGGGYIHKW”: the “soluble on expression in E. coli” value was “not soluble”.
Take “TQVYKAKFGTPNRGWVIIVHGLGEHSGRYSKLVSMLVNEGYAVYTFDWPGHGKSPGKRGHTSVEEAMEIIDFIIEEINDKPFLFGHSLGGLTVIRYAETRPEKIRGVIASSPALAKSPKTPSFMVALAKILGVLLPSLTLSNGIDPNLLSRNPDAVKRYIEDPLVHDRISAKLGRSIFKNMDLAHREAHKIKVPVLLLVGTGDVITPPEGARKLYGEIKVEDKEIVEFEGAYHEIFEDPEWGEEFHKKIVEWIKKH”: the “soluble on expression in E. coli” value is reported as “not soluble”.
As for “MSLRQPNPSQKKAPTGQVRIISGLWRGRKLPVHDAEGLRPTTDRVKETLFNWLAQEVPNARCLDLFAGSGGLGFECASRQANQVTMLELNPLAFQQLKTNVQSLKAENIELIHTDALAFLRQSGKPYDVVFIDPPFRQGLLQETTQLLEQNGWLAPQAMIYIECEKELPLTELPPHWHLHREKSAGQVCYREGHHHHHH”, the entry is “not soluble”; as for “MAAHGGSAASSALKGLIQQFTTITGASESVGKHMLEACNNNLEMAVTMFLDGGGIAEEPSTSSASVSTVRPHTEEEVRAPIPQKQEILVEPEPLFGAPKRRRPARSIFDGFRDFQTETIRQEQELRNGGAIDKKLTTLADLFRPPIDLMHKGSFETAKECGQMQNKWLMINIQNVQDFACQCLNRDVWSNEAVKNIIREHFIFWQVYHDSEEGQRYIQFYKLGDFPYVSILDPRTGQKLVEWHQLDVSSFLDQVTGFLGEHGQLDGLSSSPPKKCARSESLIDASEDSQLEAAIRASLQETHFDSTQTK”, “not soluble”; as for “VQLQQSGPVLVKPGGSVKMSCKASEYTLTSYLFQWVKQKSGQGLEWIGYIYPYNGGTRYNEKFRGKATLTSDKSSNTAYLELSSLTSEDSAVYYCARSSMSDPGANWGPGTLVTVSSASTKGPSVFPLAPSSKSTSGGTAALGCLVKDYFPEPVTVSWNSGALTSGVHTFPAVLQSSGLYSLSSVVTVPSSSLGTQTYICNVNHKPSNTKVDKKVEP”, “soluble”.
